Earlier results, collected in paper PMC4689310.
One block for each substance: values may come before it.

Tests used:
[1] = target: H3K18ac peptide 1-28 (Homo sapiens) (UniProt P68431)
[2] = target: H3 peptide 1-28 (Homo sapiens) (UniProt P68431)
[3] = target: H3K9me3 peptide 1-28 (Homo sapiens) (UniProt P68431)
[4] = target: H3 peptide 1-18 (Homo sapiens) (UniProt P68431)
[5] = target: H3 unmodified K4 peptide (Homo sapiens) (UniProt P68431)
[6] = target: H3K23ac peptide 13-32 (Homo sapiens) (UniProt P68431)
[7] = target: H3 K4un/K23ac peptide (Homo sapiens) (UniProt P68431)
[8] = target: H4K16ac peptide (Homo sapiens) (UniProt P62805); assay: ITC
[9] = target: H4K20me1 peptide (Homo sapiens) (UniProt P62805)

Sequence of DPF3b tandem PHD fingers (Q92784 259-366): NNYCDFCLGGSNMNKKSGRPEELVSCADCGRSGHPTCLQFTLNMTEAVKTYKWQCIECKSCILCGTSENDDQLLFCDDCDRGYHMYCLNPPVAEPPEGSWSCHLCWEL

Substance: TRIM33 PHD-Bromo (from UniProt Q9UPN9)
Kd [1]: 210 nM | Kd [2]: 460 nM | Kd [3]: 200 nM

Substance: DPF3b tandem PHD fingers (from UniProt Q92784)
Kd [4]: 2300 nM

Substance: TRIM24 PHD-Bromo (from UniProt O15164)
Kd [5]: 2300 nM | Kd [6]: 8800 nM | Kd [7]: 96 nM

The remaining lines, values ahead:

Kd [8]: 39000 nM
Substance: TAF1 double bromodomain (from UniProt P21675)

Kd [9]: 10000 nM
Substance: MSL3 chromodomain (from UniProt Q8N5Y2)
